Experiment [1] concerns the target T1, human C1s mutant M10 (D283I & P285A) (human, UniProt P09871 16-688).
T1 construct: The entry is the mutant itself
T1 sequence: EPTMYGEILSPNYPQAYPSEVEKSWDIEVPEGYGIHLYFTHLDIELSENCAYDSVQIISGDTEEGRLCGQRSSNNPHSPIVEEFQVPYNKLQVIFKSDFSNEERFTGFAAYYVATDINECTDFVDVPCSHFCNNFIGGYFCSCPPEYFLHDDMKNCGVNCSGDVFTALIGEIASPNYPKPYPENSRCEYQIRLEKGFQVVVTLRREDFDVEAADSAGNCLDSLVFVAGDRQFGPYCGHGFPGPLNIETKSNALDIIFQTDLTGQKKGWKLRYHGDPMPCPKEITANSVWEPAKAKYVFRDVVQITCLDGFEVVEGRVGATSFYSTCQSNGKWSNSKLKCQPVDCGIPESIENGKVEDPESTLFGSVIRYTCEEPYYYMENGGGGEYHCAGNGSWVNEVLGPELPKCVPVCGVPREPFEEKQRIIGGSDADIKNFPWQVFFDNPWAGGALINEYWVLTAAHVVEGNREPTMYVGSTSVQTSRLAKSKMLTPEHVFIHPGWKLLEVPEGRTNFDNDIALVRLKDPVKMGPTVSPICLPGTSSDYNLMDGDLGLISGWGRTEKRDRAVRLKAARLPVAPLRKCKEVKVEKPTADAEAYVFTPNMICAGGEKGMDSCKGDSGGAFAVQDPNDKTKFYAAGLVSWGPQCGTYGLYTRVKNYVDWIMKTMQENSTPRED
The experiment in a line: ELISA, plate coated with human C1s mutant M10: D283I, P285A, OD450nm. The method, then:
ELISA was carried out by first coating 96-well plates with 200 ng/well of full-length or truncated C1s proteins overnight. The next morning, plates were blocked with SuperBlock T20 blocking buffer (Thermo Scientific 37536) for 1 h with gentle shaking. Then, various concentrations of anti-C1s antibodies diluted in SuperBlock T20 blocking buffer were added to the plates and incubated for 1 h with gentle shaking. Mouse IgG (Sigma-Aldrich 15381) and human IgG1 (BioXCell BP0297) were used as negative controls. The plates were washed before incubating with HRP conjugated secondary antibodies diluted in SuperBlock T20 blocking buffer (goat anti-mouse IgG (H+L) cross-adsorbed secondary antibody HRP (Invitrogen G-21040) or goat anti-human IgG antibody, HRP conjugate (Millipore AP309P)) for 1 h with gentle shaking. At last, the plates were washed and color developed with ELISA liquid HRP substrate (Sigma-Aldrich), followed by stopping the reaction with addition of 1M H₂SO₄ in the same volume as the ELISA liquid substrate. Bound antibody was measured by absorbance at OD₄₅₀ₙₘ.
Binding of anti-C1s antibodies to mutants M1-M20 of human C1s was measured by ELISA as described in Example 4, and results are shown in FIGS. 6B-6U. All anti-C1s humanized variants including hz2-7(H1L2), hz2-8(H1L2 G80A) and hz2-8(H1L2 G80A/T82A) maintained strong binding properties to the majority (16 out of 20) of C1s mutants including M1 (FIG. 6B), M2 (FIG. 6C), M3 (FIG. 6D). M4 (FIG. 6E), M7 (FIG. 6H), M8 (FIG. 6I), M10 (FIG. 6K), M11 (FIG. 6L), M12 (FIG. 6M), M13 (FIG. 6N), M15 (FIG. 6P), M16 (FIG. 6Q), M17 (FIG. 6R), M18 (FIG. 6S), M19 (FIG. 6T) and M20 (FIG. 6U).
In general terms: ELISA stands for enzyme-linked immunosorbent assay.

The target in experiment [2] is T2, full-length human C1s (produced in house) (human, UniProt P09871 16-688).
T2 construct: Called full-length; Partly auto-cleaved at R422-I423 on blots; also called HuC1s; Hu C1s
T2 sequence: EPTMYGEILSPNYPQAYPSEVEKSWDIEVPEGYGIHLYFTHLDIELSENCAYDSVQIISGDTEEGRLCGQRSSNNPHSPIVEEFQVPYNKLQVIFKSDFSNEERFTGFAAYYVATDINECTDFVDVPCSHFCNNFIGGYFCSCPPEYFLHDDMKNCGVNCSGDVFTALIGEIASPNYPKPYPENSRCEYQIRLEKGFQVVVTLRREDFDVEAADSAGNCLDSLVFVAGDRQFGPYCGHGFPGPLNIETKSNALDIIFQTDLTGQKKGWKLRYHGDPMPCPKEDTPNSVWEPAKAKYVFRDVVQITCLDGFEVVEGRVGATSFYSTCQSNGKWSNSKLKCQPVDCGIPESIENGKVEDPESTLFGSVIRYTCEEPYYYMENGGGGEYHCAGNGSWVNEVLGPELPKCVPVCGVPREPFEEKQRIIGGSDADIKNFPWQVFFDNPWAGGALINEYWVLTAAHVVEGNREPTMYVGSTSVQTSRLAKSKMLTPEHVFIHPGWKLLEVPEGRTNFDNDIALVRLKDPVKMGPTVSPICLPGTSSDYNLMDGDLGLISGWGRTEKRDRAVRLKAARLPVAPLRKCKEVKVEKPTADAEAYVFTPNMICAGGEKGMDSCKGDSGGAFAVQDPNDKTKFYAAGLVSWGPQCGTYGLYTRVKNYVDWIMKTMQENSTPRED
Kind of experiment: ELISA, plate coated with 200 ng/well HuC1s, OD450nm. The method, then:
The next morning, plates were blocked with SuperBlock T20 blocking buffer (Thermo Scientific 37536) for 1 h with gentle shaking. Then, various concentrations of anti-C1s antibodies diluted in SuperBlock T20 blocking buffer were added to the plates and incubated for 1 h with gentle shaking. Mouse IgG (Sigma-Aldrich I5381) and Human IgG1 (BioXCell BP0297) were used as negative controls. The plates were washed before incubating with HRP conjugated secondary antibodies diluted in SuperBlock T20 blocking buffer (goat anti-mouse IgG (H+L) cross-adsorbed secondary antibody HRP (Invitrogen G-21040) or goat anti-human IgG antibody, HRP conjugate (Millipore AP309P)) for 1 h with gentle shaking. At last, the plates were washed and color developed with ELISA liquid substrate (Sigma-Aldrich), followed by stopping the reaction with addition of the same volume of […] 1M H₂SO₄. Bound antibody was measured by absorbance at OD₄₅₀ₙₘ.

B1: Anti-C1s antibody hz2-8 (H1L2 G80A) (antibody, V domains shown)
VH: QVQLVQSGAEVKKPGASVKVSCKASGFNIKEYYMHWVRQAPEQGLEWMGWIDPENADTIYAQKFQGRVTITADTSTNTAYMELSSLRSEDTAVYYCARSRLFFAYWGQGTLVTVSS
VL: DIQMTQSPKSLSASVGDRVTITCRASQDVRTALDWYQQKPGQSPKLLIYSASYRYSGVPSRFSGSGSGTDFTLTISSLQPEDFATYYCQQQYTTPYTFGQGTKLEIKR
notes: Humanized variant with G80A in HC CDR2 (already in the entry), human IgG1 / kappa
On to B1, for which a half-maximal effect in experiment [1] (EC50) was put at 5 ng/mL.

B2: Anti-C1s antibody hz2-8 (H1L2 G80A/T82A) (antibody, V domains shown)
VH: QVQLVQSGAEVKKPGASVKVSCKASGFNIKEYYMHWVRQAPEQGLEWMGWIDPENADAIYAQKFQGRVTITADTSTNTAYMELSSLRSEDTAVYYCARSRLFFAYWGQGTLVTVSS
VL: DIQMTQSPKSLSASVGDRVTITCRASQDVRTALDWYQQKPGQSPKLLIYSASYRYSGVPSRFSGSGSGTDFTLTISSLQPEDFATYYCQQQYTTPYTFGQGTKLEIKR
notes: Humanized variant with G80A and T82A in HC CDR2 (already in the entry), human IgG1 / kappa
Regarding B2, the concentration for a half-maximal effect (EC50) (commonly the concentration needed to bring the measured effect to its halfway point) in experiment [2] is 4 ng/mL; in experiment [1] it was 6 ng/mL.

B3: Anti-C1s antibody hz2-7(H1L2) (antibody, V domains shown)
VH: EVQLLESGGGLVQPGGSLRLSCAASGFTFSNYFMNWVRQAPGKGLEWVSEIRLKFTNYATHYADSVKGRFTISRDDSKSTLYLQMNSLRAEDTAVYYCTRDYGSRNGYFDYWGQGTLVTVSS
VL: DIVMTQTPLSLPVTPGEPASISCRSSKSLLHSNGNTFLYWFLQKPGQSPQLLIYRMSNLASGVPDRFSGSGSGTDFTLKISRVEAEDVGVYYCMQHLEYPYTFGGGTKLEIKR
notes: Humanized, human IgG1 / kappa; also called hz2-7(1L2)
Take B3: the 50% effective concentration (EC50) in experiment [2] and in experiment [1] was 6 ng/mL throughout.

B4: Anti-C1s antibody 2-8 (antibody, V domains shown)
VH: EVQLQQSGAELVRPGALVKLSCKASGFNIKEYYMHWVKQRPEQGLEWIGWIDPENGDTIYDPKFQGKASITADTSSNTAYLQLSSLTSEDTAVYYCARSRLFFAYWGQGTLVTVSA
VL: DIVMTQSHKFMSTSVGDRVSFTCKASQDVRTAVDWYQQKPGQSPKLLIYSASYRYTGVPDRFTGTGSGTDFTFTISSVQAEDLAVYFCQQQYTTPYTFGGGTKLEIKT
notes: the HC/LC entries may hold it too; also called clone 2-8
On to B4, for which the 50% effective concentration (EC50) in experiment [2] came out at 5 ng/mL.

B5: Anti-C1s antibody 2-7 (antibody, human IgG1, kappa, V domains shown)
VH: EVKLEESGGGLVPPGGSMKLSCVASGFTFSNYFMNWVRQSPEKGLEWVAEIRLKFTNYATHYAESVEGRFTISRDDSKSSVYLQMNNLRAEDTGIYYCTRDYGSRNGYFDYWGQGTTLTVSS
VL: DIVMTQAAPSVPVTPGESVSISCRSSKSLLHSNGNTFLYWFLQRPGQSPQLLIYRMSNLASGVPDRFSGSGSGTAFTLRVSRVEAEDVGIYYCMQHLEYPYTFGGGTKLEIKT
notes: the HC/LC entries may hold it too; also called clone 2-7
B5: in experiment [2], the 50% effective concentration (EC50) is 6 ng/mL.

The values are drawn from patent publication US20230051715A1 (MABWELL THERAPEUTICS, published 2023).
